Results published in the supplement of paper PMC10126150.
± gives the standard deviation of the averaged measurements.

System: ATP
Assay: switch fluorescence ratio, 500 uM ATP over buffer (Cy3 cluster intensity, sum of 5 cycles each) (fold (ratio)); higher = stronger signal-on switching upon ATP binding; sequences stand for … in TCGTCGGCAGCGTCAGATGTGTATAAGAGACAGTTTTTTTTTTTTTTTTTTTTTTTTT…TC
Conditions: aptamer strand: ATP DNA aptamer (quencher-CACCTGGGGGAGTATTGCGGAGGAAGG + anchor), 100 nM annealed; ATP concentration: 500 uM
Summary of the method: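 After annealing to 100 nM quencher-labelled ATP aptamer, Cy3-labelled switching-strand clusters on a modified Illumina MiSeq flow-cell were imaged in selection buffer. A second image followed after 15 min with 500 uM ATP at 22 °C, and five such buffer/ATP cycles were done, each separated by NaOH stripping and re-annealing. The fluorescence ratio, averaged per switch-domain sequence, is summed target-cycle over summed buffer-cycle Cy3 intensity per cluster, with clusters outside 100-1000 RFU excluded.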
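Further: ATP exposure 15 min at 22 °C before imaging.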

Row | Sequence | switch fluorescence ratio
1 | TTTGTTGTCA | 0.974 ± 0.016
2 | TTTGTTGTGT | 1.02 ± 0.025
3 | TTTGTTGTTG | 0.984 ± 0.03
4 | TTTGTTTCCA | 0.962 ± 0.012
5 | TTTGTTTTA | 1.01 ± 0.019
6 | TTTGTTTTCA | 0.989 ± 0.034
7 | TTTGTTTTGA | 1.02 ± 0.027
8 | TTTTAAAAAC | 1.05 ± 0.049
9 | TTTTAAAACA | 1.02 ± 0.029
10 | TTTTAAAAGA | 0.995 ± 0.027
11 | TTTTAAAATG | 1.01 ± 0.032
12 | TTTTAAATAA | 1.01 ± 0.026
13 | TTTTAAATGT | 1.04 ± 0.029
14 | TTTTAAATTG | 0.964 ± 0.023
15 | TTTTAACATT | 1.06 ± 0.081
16 | TTTTAACTCG | 1.01 ± 0.023
17 | TTTTAAGAAT | 1.005 ± 0.0078
18 | TTTTAAGCAG | 1.05 ± 0.036
19 | TTTTAAGCCC | 1.03 ± 0.046
20 | TTTTAAGCGG | 0.999 ± 0.015
21 | TTTTAATATT | 1.05 ± 0.11
22 | TTTTAATCAT | 1.6 ± 0.88
23 | TTTTAATTCG | 1.057 ± 0.0035
24 | TTTTAATTT | 0.997 ± 0.042
25 | TTTTAATTTT | 0.998 ± 0.029
26 | TTTTACAAGG | 0.983 ± 0.031

Row | Sequence | switch fluorescence ratio
27 | TTTTACCGAG | 1.047 ± 0.0032
28 | TTTTACCGTA | 1.04 ± 0.034
29 | TTTTACGTGA | 1.057 ± 0.0092
30 | TTTTACTATG | 0.9893 ± 0.0041
31 | TTTTACTCGA | 1.03 ± 0.014
32 | TTTTACTTAA | 1.28 ± 0.37
33 | TTTTACTTTA | 1.06 ± 0.032
34 | TTTTAGAGCC | 1.04 ± 0.043
35 | TTTTAGAGTG | 1 ± 0.036
36 | TTTTAGATCT | 1.02 ± 0.016
37 | TTTTAGGACC | 1 ± 0.025
38 | TTTTAGGAGC | 0.985 ± 0.023
39 | TTTTAGGAT | 1.004 ± 0.0021
40 | TTTTAGGATT | 1.016 ± 0.0018
41 | TTTTAGGGCT | 0.989 ± 0.03
42 | TTTTAGGGTC | 1.11 ± 0.2
43 | TTTTAGGTAT | 1.02 ± 0.038
44 | TTTTAGGTTA | 0.986 ± 0.027
45 | TTTTAGGTTT | 1.06 ± 0.16
46 | TTTTAGTAAC | 1.02 ± 0.017
47 | TTTTAGTCTT | 1.04 ± 0.078
48 | TTTTAGTTAC | 1.073 ± 0.0044
49 | TTTTAGTTAT | 1.04 ± 0.037
50 | TTTTAGTTCG | 1 ± 0.028
51 | TTTTATAAAG | 1 ± 0.022
52 | TTTTATAGCG | 0.99918 ± 0.00023

Row | Sequence | switch fluorescence ratio
53 | TTTTATAGTT | 1 ± 0.023
54 | TTTTATATGC | 1.19 ± 0.27
55 | TTTTATATTA | 1 ± 0.04
56 | TTTTATCCCA | 1.004 ± 0.0067
57 | TTTTATCTAG | 1.01 ± 0.012
58 | TTTTATGAGA | 0.978 ± 0.031
59 | TTTTATGATT | 0.997 ± 0.04
60 | TTTTATGGTG | 0.994 ± 0.019
61 | TTTTATGGTT | 0.997 ± 0.032
62 | TTTTATGTAT | 1.06 ± 0.048
63 | TTTTATTAGA | 0.974 ± 0.065
64 | TTTTATTCTT | 0.987 ± 0.016
65 | TTTTATTGTT | 1.01 ± 0.034
66 | TTTTATTTGG | 0.983 ± 0.018
67 | TTTTCAAGAC | 1.31 ± 0.28
68 | TTTTCAATCT | 0.9933 ± 0.0073
69 | TTTTCACGCA | 1.57 ± 0.53
70 | TTTTCATACT | 1.07 ± 0.046
71 | TTTTCATTAA | 0.9932 ± 0.008
72 | TTTTCATTAG | 1.03 ± 0.026
73 | TTTTCCAAAG | 1.01 ± 0.055
74 | TTTTCCAATA | 1.52 ± 0.13
75 | TTTTCCAGCG | 1.03 ± 0.013
76 | TTTTCCCTAT | 1.41 ± 0.71
77 | TTTTCCCTGG | 1.46 ± 0.62
78 | TTTTCCGGGG | 1.04 ± 0.045

Row | Sequence | switch fluorescence ratio
79 | TTTTCCGGGT | 1.02 ± 0.032
80 | TTTTCCGTAT | 1.18 ± 0.025
81 | TTTTCCTATG | 0.977 ± 0.019
82 | TTTTCCTCCC | 1.28 ± 0.24
83 | TTTTCCTCGC | 2.86 ± 0.27
84 | TTTTCCTGAT | 1 ± 0.017
85 | TTTTCCTTCT | 1.09 ± 0.089
86 | TTTTCCTTTC | 1.206 ± 0.011
87 | TTTTCGAAAT | 1.01 ± 0.024
88 | TTTTCGAATA | 1.009 ± 0.005
89 | TTTTCGATTA | 0.987 ± 0.016
90 | TTTTCGCTGG | 1.01 ± 0.049
91 | TTTTCGCTTA | 1.01 ± 0.03
92 | TTTTCGGACG | 1.03 ± 0.05
93 | TTTTCGGATG | 1.02 ± 0.028
94 | TTTTCGGCTT | 0.965 ± 0.031
95 | TTTTCGGGCA | 0.99223 ± 4.3e-05
96 | TTTTCGGTGG | 1.05 ± 0.019
97 | TTTTCGGTTA | 1.01 ± 0.015
98 | TTTTCTAAGG | 0.989 ± 0.085
99 | TTTTCTATTG | 1 ± 0.044
100 | TTTTCTATTT | 0.998 ± 0.018
101 | TTTTCTCGCT | 0.967 ± 0.02
102 | TTTTCTCTGT | 0.967 ± 0.023
103 | TTTTCTCTTC | 0.9808 ± 0.0054
104 | TTTTCTGACG | 1.03 ± 0.02

Row | Sequence | switch fluorescence ratio
105 | TTTTCTGCGT | 1.02 ± 0.043
106 | TTTTCTGTTC | 0.988 ± 0.044
107 | TTTTCTTGCC | 1.09 ± 0.11
108 | TTTTCTTTTA | 1.001 ± 0.0032
109 | TTTTGAAACT | 0.9733 ± 0.0091
110 | TTTTGAAAGG | 0.976 ± 0.01
111 | TTTTGAAATC | 1.004 ± 0.0061
112 | TTTTGAAGGT | 0.997 ± 0.0099
113 | TTTTGACACG | 0.959 ± 0.03
114 | TTTTGACAGG | 1.03 ± 0.011
115 | TTTTGACGCG | 1.06 ± 0.052
116 | TTTTGAGAAT | 1.017 ± 0.0015
117 | TTTTGAGCCA | 0.983 ± 0.032
118 | TTTTGAGCGA | 1.07 ± 0.051
119 | TTTTGAGCTT | 1.04 ± 0.081
120 | TTTTGAGGG | 1.07 ± 0.061
121 | TTTTGAGGT | 1.02 ± 0.03
122 | TTTTGAGGTG | 1.06 ± 0.028
123 | TTTTGAGTAT | 0.967 ± 0.035
124 | TTTTGAGTT | 0.986 ± 0.076
125 | TTTTGAGTTA | 0.976 ± 0.039
126 | TTTTGATATT | 1.01 ± 0.035
127 | TTTTGATCGC | 1.36 ± 0.5
128 | TTTTGATGAG | 0.987 ± 0.021
129 | TTTTGATGGC | 1.01 ± 0.022
130 | TTTTGCACGC | 1.28 ± 0.2

Row | Sequence | switch fluorescence ratio
131 | TTTTGCCATG | 1.04 ± 0.067
132 | TTTTGCCTCC | 1.09 ± 0.035
133 | TTTTGCGATC | 1.14 ± 0.021
134 | TTTTGCGCGC | 0.994 ± 0.029
135 | TTTTGCTCGT | 1.14 ± 0.2
136 | TTTTGCTGCA | 0.978 ± 0.013
137 | TTTTGCTGGA | 1.02 ± 0.031
138 | TTTTGCTGGG | 1.03 ± 0.11
139 | TTTTGCTGTT | 0.987 ± 0.033
140 | TTTTGGACTA | 1.05 ± 0.081
141 | TTTTGGCCAA | 1.01 ± 0.041
142 | TTTTGGCGAA | 0.989 ± 0.015
143 | TTTTGGCT | 1.02 ± 0.025
144 | TTTTGGCTCC | 0.99685 ± 0.00035
145 | TTTTGGGCAA | 1.31 ± 0.21
146 | TTTTGGGCAG | 0.971 ± 0.013
147 | TTTTGGGCGG | 0.99 ± 0.022
148 | TTTTGGGCGT | 1 ± 0.062
149 | TTTTGGGGCA | 1.07 ± 0.13
150 | TTTTGGGGTA | 0.993 ± 0.036
151 | TTTTGGGGTG | 1.05 ± 0.12
152 | TTTTGGGTG | 1.04 ± 0.04
153 | TTTTGGGTGT | 1.02 ± 0.059
